# Reference: publication PMC12088383
# Molecular target: GST-OGG1F319A (Homo sapiens, UniProt O15527 1-345, F319A)
# Assay: EMSA
# GST-OGG1F319A, sequence (O15527 whole entry F319A): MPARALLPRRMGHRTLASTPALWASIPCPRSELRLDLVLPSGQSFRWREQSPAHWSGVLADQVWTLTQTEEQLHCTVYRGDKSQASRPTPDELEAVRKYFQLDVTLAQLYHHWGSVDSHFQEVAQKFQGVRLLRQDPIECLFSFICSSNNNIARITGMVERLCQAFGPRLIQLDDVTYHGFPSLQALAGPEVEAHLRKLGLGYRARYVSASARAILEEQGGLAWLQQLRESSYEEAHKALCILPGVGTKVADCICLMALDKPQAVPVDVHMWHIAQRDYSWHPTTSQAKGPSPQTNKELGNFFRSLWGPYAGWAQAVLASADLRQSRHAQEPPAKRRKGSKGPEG
binder,measurement,value
"8-oxoGua duplex probe (Table S1) (dsDNA, 8-oxoguanine at position 19 of strand 1 (printed X, written as G)) DNA 1: AGAGAAGAAGAAGAAGAAGAGATGGGTTATTCGAACTAGC DNA 2: GCTAGTTCGAATAACCCATCTCTTCTTCTTCTTCTTCTCT",binding result,no binding
